Measured values taken from the RNAGym collection of RNA variant scans (doi:10.1073/pnas.2313332121).
Variants at the floor of the assay were thinned out.

B1: TPR 5TU (parent)
chain: GGAUCUUCUCGAUCUAACAAAAAAGACAAAUCUGCCACAAAGCUUGAGAGCAUCUUCGGAUGCAGAGGCGGCAGCCUUCGGUGGCGCGAUAGCGCCAACGUUCUCAACUAUGACACGCAAAACGCGUGCUCCGUUGAAUGGAGUUUAUCAUG

Variants of: B1
Experiment: polymerase ribozyme fitness, log enrichment relative to wild type (log ratio); higher = more active; in vitro selection for triplet polymerase activity
Outline: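 Mutant libraries of each subunit of a heterodimeric triplet polymerase ribozyme were built by PCR and transcribed. Each library went through one round of in vitro selection in triplicate: annealing with biotinylated primer, partner subunit and triplets, frozen incubation at −7 °C, gel excision of extended constructs, streptavidin-bead capture and RT-PCR. Input and output libraries were Illumina-sequenced; only genotypes with ≥10 input reads and ≥1 read per output were kept. Fitness is log2(genotype enrichment/wild-type enrichment), using inverse-variance-weighted replicate averages.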

Row | Variant | polymerase ribozyme fitness (log ratio)
1 | GGAUCUUCUCGACCUUACAAAAAAGACAAAUCUGCCACAAAGCUUGAGAGCAUCUUCGGAUGCAGAGGCGGCAGCCUUCGGUGACGCGAUAGCGCCAACGUUCUCAACGAUGACACGCAAAACGCGUGCUCCGUUGAAUGGAGUUUAUCAUG | -1.88
2 | GGAUCUUCUCGACCUAACAAAAAAGUCAAAUCUGCCACAAAGCUUGAGAGCAUCUACCGAUGAAGAGGCGGCAUCCUUCGGUGGCGCCAUAGCGCCUACGUUCUCAACUAUGACACGCAAAACGCGUGCUCCGUUGAAUGGAGUUUAUCAUG | ≤ -4.2
3 | GGAUCUUCUCGACCUAACAAAAAAGACAAAUCUGCCACCAAGCUUGAGAGCAUCUUCGGAUGCAGAGGCGGAAGCGUUCGGUGGCGCGAUAGCGCCAAGGUUCUCAACUAUGACACGCAAAACGCGUGCUCCGUUGAAUUGAGUUUCUCAUG | ≤ -4.2
4 | GGAUCUUCUCGACCUAACAAAAAAGACAAAUCUGCCACAAAGCUUGAGAGCAUCUUCGGAUGCAGAGGCGGCAGCAUUCGGGGGUGCGAUAGCGCCAACGUUCUCAACUAUGACACGGAAAACGCGUGCUCCGUUGAAUGGAGUUUAUCAUG | -2.92
5 | GGAUCUUCUCGAACUAACAAAAAUGACAAAUCUGCCACAAAGCUUGAGAGCAUCUUCGGAUGCAGAGGCGGCAGCCUUCGGUGGCGAGAUAGCGCCAACGUUCUCAACUAUGACACGCAAAAAGCGUGCUCCGUUGAAUGGAGUUUAUCAUG | ≤ -4.2
6 | GGAUCUUCUCGAACUAACAAAAAAGACAAAUCUGCCACAAAGCUUGAGAGCAUGUUCGGAUGCAGAGACGGCAGGGUUCGGUGGCGCGAGAGCGGCAACGUUCUCAACUAUGACACGCUAAACGCGUGCUCCGUUGAAUGGAGUUUAUCAUG | ≤ -4.2
7 | GGAUCUUCUCGACCUAACAAGAAAGACAAACCUGCCACAAAACUUGAGAGCCUCUUCGGAUGCAGAGGCGGCAGCCUUCGGUGGCGCGAUAGCGACAACGUUCUCAACUAUGACACGCAAAACGCGUGGUCCGUUGAAUGGAGUUUAUCAUG | ≤ -4.2
8 | GGAUCUUCUCGACCUAACAAAAAAGACAAAUCUGCCACAAAGCUUGAGAGCAUUUUCGGAUGCAGAGGCGGCAGCCUUCGGUGGCGCGAUAGCGCCAACGUUUUCAACUAUGACACGCAAAACGCGUGCUCCGUUGAAUGGAGUUUAUCAUG | -1.54
9 | GGAUCUUCUCGAACUAACAAAAAAGACAAAUCUGCCACAAAGCUAGAGAGCAUCUUCGGAUGCAGAGGCGGCAGCCUUCGGUGACGCGAUAGCGCCAACGUUCUCAACUAUGACACGCAAAACGCGUGCUCCGUUGAAUGGAGUUUAUCAUG | ≤ -4.2
10 | GGAUCUUCUCGACCUAACUAAAAAGACAAAUCUGCCACAAAGCUUGAGAGCAUCAUCGGAUGCAGAGGCGGCAGCCUUCGGUAGCGCGAUAGCGCCAACGUUCUCAACUAGGACACGCAAAACGCGUGCUCCGUUGAAUGGAGUUUAUCAUG | ≤ -4.2
11 | GGAUCUUCUCGACCUAACAAAAAAGACAAAUCUGCCACAAAGCUUGAGAUCAUCUUCGGAUGCAGAGGCGGCAGCCUUCGGUGGCCCGUUAGCGCAAACGUUCUCAACUAUGACAAGCAAAACGCGUGCUCCGUUGAAUGGAGUUUAUCAUG | ≤ -4.2
12 | GGAUCUUCUCGACCUAACAAAAAAGACAAAUCUGCAACAAAGCUUGAGAGCAUCUUCGGAUGCAGAGGCGGCAGCCUUCGGUGGGGCGAUAGCGCCAAAGUUCUCAACUAUGACACGCAAAACGCGUGCUCCGUUGACUGGAGUUUAUCAUG | ≤ -4.2
13 | GGAUCUUCUCGAACUAACAAAAAAGACAAAUCUGCCACAAAGCUUGAGAGCAUCUUCGGAUGCAGAGGCGGCACCCUUCGGUGGCGCGAUAGUGCCAACGUUCUCAACUAUGACACGCAAAACACGUGCUCCGUUGAAUGGAGUUUAUCAUG | ≤ -4.2
14 | GGAUCUUCUCGACCUAACACAAAAGACAAAUCUGCCACAAAGCUUGAGAGCAUCUUCGGAUGCAGAGGCGGCAGCCUUCGGUUGAGCGAUAGAGCCAACGUUCUCAACUAUGACACGCAAAACGCGUGCUCCGUUGAAUGGAGUUUAUCAUG | ≤ -4.2
15 | GGAUCUUCUCGACGUAACAAAAAAGACAAAUCUGCCACAAAGCUUGAGAGCAUCUUAGGAUGCAGAGGCGGCAGCCUUCGGUGGCGCGAUAGCGCCAACGGUCUCAACUAUGACACGCAAAACGCGUGCUCCGUUGAAUGGAGUUUAUCAUG | -1.23
16 | GGAUCUUCUCGACCUAACACCAAAGACAAAUCUGCCACAAAGCUUGAGAGCAUCUUCAGAUGCAGAGGCGGCAGCCUUCGGAGGCGCGAUAGCGCCAACGAUCUCAACUAUGACACGCAAAACGCGUGCUCCGUUGAAUGGAGUUUAUCAUG | -1.36
17 | GGAUCUUCUCGACCUAACAAAAAAGACAAAUCUGCCACAAAGCUUGAGAGCAUGUUCGGAUGCAGAGGCGGCAGCCUUCGGUGGCGCGAUAGCGGCAACGUUCUCAACUAUGACACGCAAAACGCGUGCUCCGUUGAAUGGAGUUUAUCAUG | -3.76
18 | GGAUCUUCUCGAACUAACAAAAAAGACAAAUCUGCCACAAAGCUAGAGAGCAUCUACGGAUGCAGAGGCGGCAACCUUCGGUGGCGCGAUAGCGCCAACGUUCUCAACUAUGACACGCAAAACGCGUGCUCCGUUGAAUGGAGUUUAUCAUG | ≤ -4.2
19 | GGAUCUUCUCGAACCAACAAAAAAGCCAAAUCUGCCACAAAGCUUGAGAGCAUCUUCGGAUGCAGAGGCGGCAGCCUUCGGUGGCGCGAUAGAGCCAACGUUCUCAACUAUGACACGCAAAACGCGUGCUCCGUUGAAUGGAGUUUAUCAUG | -3.05

Row | Variant | polymerase ribozyme fitness (log ratio)
20 | GGAUCUUCUCGACCUAACAAAAAAGACAAAUCUGCCACAAAGCUUGAGAGCAUCUUCGGAUGCAGAGGCGGCAGCCUUCGGUGGCGCGAUAGCGCCAACGUUCUCAACUAUGACACGCAAAACGCGUGCUCCGUUGAAUGGAGUUUAUCAUG | -0.269
21 | GGAUCUUCUCGAACUAACAAAAAAGACAAAUCUGCCACUAAGCUAGAGAGCAUCUUCGCAUGCAGAGGCGGUAGCCUUCGGUGGCGCGAUAGCCCCAACGAUCUCAACUAUGACACGCAAAACGCGUGCUCCGUUGAAUGGCGUUUAUCAUG | ≤ -4.2
22 | GGAUCUUCUCGAACUAACAAAAAAGACUAAUCUGCCACAAAGUUUGAGAGCAUCUUCGGAUGCAAAGGCGGCAGCCUUCGGUGGCGCGAUAGCGCCAACGUUCUCGACUAUGACACGCAAAACGCGUGCUCCGUUGAAUGGAGUUUAUCAUG | ≤ -4.2
23 | GGAUCUUCUCGAACUAACAAAAAAGACAAAUCUGCCACAAAGCUUGAGAGCAUCUUCGGAUGCAGAGGCGGCAGCCUUCGGUGGCGCGAUAGCGCCAUCGUUCUCAACUAUGACACGCAAAACGCGUGCUCCGUUGAAUGGAGUUUAGCAUG | ≤ -4.2
24 | GGAUCUUCUCGAACUAACAAAAAAGACAAAUCUGCCACAAAGCUUGAGAGCAACUUCGGAUGGAGAGGCGGCAGCCUUCGGUGGCGCGAUAGCGCCUACGUGCUCAACUAUGACACGCAAAACGCGUGCUCCGUUGAAUGGCGUUUAUCAUG | ≤ -4.2
25 | GGAUCUUCUCGACCUAAUAAAAAAGACAAAUCUGCCACAAAGCUUGAGAGCAUCUUCGGAUGCAGAGGCGGCAGCCUUCGGUGGCGCGAUAGCGCCAACGUUCUCAACUAUGACACGCAAAACGCGUGCUCCGUUGAAUGGAGUUUAUCAUG | 0.127
26 | GGAUCUUCUCGACCUAACAAAAAAGACAAAUCUGCCACAAAGCUUGAGCGCAUCUUCGGAUGCAGAGGCGGCAGCCUUCGGUGGCGCGAUAGAGCCAACGUUCUCAACUAUGACACGCAAAACGCGUGCUCCGUUGAAUGGAGUUUAUCAUG | ≤ -4.2
27 | GGAUCUUCUCGAACUAACAAAAAAGACAAAUCUGUCACAAAGCUUGAGAGCAUCUUUGGAUGCAGAGGCGGCAGCCUUCGGUGGCGCGAUAGCGCCAACGUUCUCAACUAUGACACGCAAAACGCGUGCUCCGUUGAAUGGAGUUUAUCAUG | -1.42
28 | GGAUCUUCUCGACCUAACAAAAAAGUCAAAUCUGCCACAAAGCUUGAGAGCCUCAUCGGAUGCAGAGGCGGCAGCCUUCGGUGGCGCACUAGCGCCAAUGUUCUCAACUAUGACACGCAAAACGCGUGCUCCGUGGAAUGGUGUUUAUCAUG | ≤ -4.2
29 | GGAUCUUCUCGAACCAACAAAAAAGACGAAUCGGCCACAAAGCUUGAGAGCAUCUUCGGAUGCAGAGGCGGCAGCCUUAGGUGGCGCGAUAGCGCCAACGUUCUCAACUAUGACACGUAAAACGCGUGCUCCGUUGAAUGGAGUUUAGCAUG | ≤ -4.2
30 | GGAUCUUCUCGACCUAACAAAAAACACAAAUCUGCCACAAAGCUUGAGAGCAUCUUCGGAUGCAGAGGCGGCAGCAUUCGGUGGCGCGAUAGCGCCUACGUUGUGAACUAUGACACGCAAAACGCGUGCUCCGUUGAACGGAGUUUAUCAUG | ≤ -4.2
31 | GGAUCUUCUCGAACUAACAAAAAAGACAAAUCUGCCACAAGGCUUGAGAGCAUCUUCGGAUGCAGAGGCGGCAGCCUUCGGUGGGGCGAUAGCGCCAACGUUCUCAACUAUGACACGCAAAACGCGUGCUCCGUUGAAUGGAGUUUGUCAUG | -2.67
32 | GGAUCUUCUCGACCUAAGAAUAAAGACAAAUCUGCCACACAGCUUGAGAGCAGCUUCGGUAGCAGAGGCGGCAGCCUUCGGUGGCGCGAUAGCUCCAACAUUCUCAACUAUGACACGCAAAACGCAUGCUCCGUUGAAUGGAGUUUAUCAUG | ≤ -4.2
33 | GGAUCUUCUCGACCUAACAAAAAAGACAAAUCUGCCACAAAGCUUGAGAUCAUCUUCGAAUGCAGAGGCGGCAGCCUUCGGCGGCGCGAUAGCGCCAACGUUCUCAACUAUGACACGCAAUACGCGUGCUCCGUUAAAUGGAGUUUAUCAUG | -1.14
34 | GGAUCUUCUCGACCUAACAAAAAAGACAAAUCUGCCACAAAGCUUGAGAGCAUCUUAAGAUGCAGGGGCGGCAGCCUUCGGGGGCGCGAUAGCGCCAACGUUCUCAACUAUGACAUGCAAAACGCGUGCUCCGUUGAAUGGAGUUUAUCAUG | ≤ -4.2
35 | GGAUCUUCUCGACCUAACAAAAAAGACAAAUCUGCCACAAAGCUUGAGAGCAUCUUCGGAUGCAGUGGCGGCAGCCUUCGGUGGCGCAAUUGCGCCAACGUUCUCAACUAUGACACGCAAAACGCGUGCUCCGUUGAAUGGAGUUUAUCAUG | ≤ -4.2
36 | GGAUCUUCUCGAACUAACAAAAAAGACAAAUCUGCCACAAAGCUUGAGAGCAUCUUCGGAUGCAGAGGCGGCAGCUUUCGGUGGCGCGAUAGCGCCAACGUUCUGAACUAUGAUACGCAAAACGCGUGCUCCGUUGAAUGGAGUUUAUCAUG | ≤ -4.2
37 | GGAUCUUCUCGACCUAACAAAGAAGACAAAUCUGCCACAAAGCUUGAGUGCAUCUUCGGAUGCAGAGCCGGCAGCCUUGGGUGGCGCGAUAGCGCCAACGUUCUCAACUAUGACACGCAAAACGCGUGCUCCGUUGAAUGGAGUUUAUCAUG | ≤ -4.2
38 | GGAUCUUCUCGACCUAACAAAAAAGACAAAUCUGCCACAAAGCUUGAGAGCAUUUUCGGAUGCAGAGGCGGCAGCCUUCGGUGGCGUGAUAGCGCCAACGUUCUCAACUAUGACACGCAAAACGCGUGCUCCGUUGAAUGGAGUUUAUCAUG | -1.35
